T1: wt Dpo4 (DNA polymerase IV) (Sulfolobus solfataricus, UniProt Q97W02 1-352)
T1 sequence: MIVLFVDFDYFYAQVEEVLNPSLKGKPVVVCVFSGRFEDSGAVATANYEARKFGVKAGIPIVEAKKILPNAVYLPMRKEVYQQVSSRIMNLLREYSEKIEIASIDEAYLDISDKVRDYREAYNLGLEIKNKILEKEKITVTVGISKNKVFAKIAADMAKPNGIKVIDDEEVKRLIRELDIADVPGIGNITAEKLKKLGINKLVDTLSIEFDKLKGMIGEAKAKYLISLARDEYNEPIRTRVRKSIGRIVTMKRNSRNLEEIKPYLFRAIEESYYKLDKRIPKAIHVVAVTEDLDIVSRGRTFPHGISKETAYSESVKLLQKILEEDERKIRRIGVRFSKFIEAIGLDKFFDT


Tests used:
[1] = target: T1, wt Dpo4 (DNA polymerase IV); assay: stopped-flow FRET
[2] = target: T1, wt Dpo4 (DNA polymerase IV); assay: stopped-flow fluorescence anisotropy

Binder	binding result [1]	binding result [2]
DNAOH (21-mer/30-mer) (dsDNA) DNA 1: CGAGCCGTCGCATCCTACCGC DNA 2: GATGCTGCAGCGGTAGGATGCGACGGCTCG	binds	–
Alexa488-labeled DNAOH (dsDNA, 5-C6-amino-2'-deoxythymidine at T13 of primer (ninth base from 3' end)) DNA 1: CGAGCCGTCGCATCCTACCGC DNA 2: GATGCTGCAGCGGTAGGATGCGACGGCTCG	–	binds
